Test results as given in patent publication EP4242225A1 (Consejo Superior De Investigaciones Científicas, dated 2023).

Key:
Assay in all cases: ELISA, biotin-labeled bispecific hcAb on plate-bound RBD-Fc
[1] = molecular target: T1, RBD-Fc, delta variant (B.1.617.2) (SARS-CoV-2; human, UniProt P0DTC2 332-534)
T1 construct: range 332-534; also called delta RBD

[2] = molecular target: T2, RBD-Fc, kappa variant (B.1.617.1) (SARS-CoV-2; human, UniProt P0DTC2 332-534)
T2 construct: range 332-534; also called kappa RBD

[3] = molecular target: T3, RBD-Fc, beta variant (B.1.351) (SARS-CoV-2; human, UniProt P0DTC2 332-534)
T3 construct: range 332-534; also called beta RBD

[4] = molecular target: T4, RBD-Fc, gamma variant (B.1.1.28.1 or P.1) (SARS-CoV-2; human, UniProt P0DTC2 332-534)
T4 construct: range 332-534; also called gamma RBD

Measured: binding result

B1: bispecific hcAb 1.29-1.10 (bispecific antibody)
heavy: QVQLVESGGGSVQAGGSLRLSCAASGYTINTDAVAWFRQAPGKGDERVAVIYTGSGNTNYADSVKGRFTISQDNAKNTVYLQMNSLKPEDTALYYCASGYYGASGYDFNNWGQGTQVTVSSGGGGSGGGGSGGGGSQVQLVESGGGSVQAGGSLRLSCAASGYTYSTCRKGWYRQAPGKERELVASITADGATYYLDSVKGRLTISQDNAKNTVYLQMNSLKPEDTAVYYCAASVKDFTCTFNSWGQGTQVTVSS
binds: [1] | [2] | [3] | [4]

B2: bispecific hcAb 1.29-1.26 (bispecific antibody)
heavy: QVQLVESGGGSVQAGGSLRLSCAASGYTINTDAVAWFRQAPGKGDERVAVIYTGSGNTNYADSVKGRFTISQDNAKNTVYLQMNSLKPEDTALYYCASGYYGASGYDFNNWGQGTQVTVSSGGGGSGGGGSGGGGSQVQLVESGGGLVQAGGSLRLSCAATGYTWSSVCMGWFRQAPGKEREGVAGIPSGRNRPYYADSVKGRFTISQDNAKNAVFLLMNSLKPEDTAIYYCAPCSAPHDPEYNYWGQGTQVTVSS
binds: [1] | [2] | [3] | [4]
